Biological target: Myc-UbcM2-His6 (mouse) (UniProt P52483)
Experiment: pull-down

Chain of ^35S-RCBTB1 without the BTB domain and the C-terminal 87 residues (Q8NDN9 1-359): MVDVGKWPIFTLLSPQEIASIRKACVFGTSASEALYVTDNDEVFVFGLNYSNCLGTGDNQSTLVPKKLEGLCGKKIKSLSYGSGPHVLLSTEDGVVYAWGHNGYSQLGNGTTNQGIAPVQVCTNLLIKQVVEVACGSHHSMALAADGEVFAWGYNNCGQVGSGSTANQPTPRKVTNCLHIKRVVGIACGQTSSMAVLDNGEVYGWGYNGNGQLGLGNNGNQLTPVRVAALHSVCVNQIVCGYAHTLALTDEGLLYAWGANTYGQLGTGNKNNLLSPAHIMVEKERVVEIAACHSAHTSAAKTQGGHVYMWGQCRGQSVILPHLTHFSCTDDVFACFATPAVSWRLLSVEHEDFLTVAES
Chain of Myc-UbcM2-His6 (mouse) (P52483 whole entry): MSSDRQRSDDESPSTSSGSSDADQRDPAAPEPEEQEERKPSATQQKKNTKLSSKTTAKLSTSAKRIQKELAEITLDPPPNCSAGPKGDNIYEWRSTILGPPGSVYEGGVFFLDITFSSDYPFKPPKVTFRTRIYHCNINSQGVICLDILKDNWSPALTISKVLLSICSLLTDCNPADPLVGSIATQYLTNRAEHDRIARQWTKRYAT

decrease of binding against wild type RCBTB1: 78%
Substance: ^35S-RCBTB1 without the BTB domain and the C-terminal 87 residues (from UniProt Q8NDN9 1-359) (domain or fragment)
